Data published in patent US20150106963A1.

Biological target: porcine cytochrome P450 17A1 (CYP17A1), wild type (pig (Sus scrofa)) (UniProt P19100)
Assay: cell-based or functional assay
Conditions: scale: ratio

Sequence of UniProt P19100 (P19100 whole entry H407L, form in doubt): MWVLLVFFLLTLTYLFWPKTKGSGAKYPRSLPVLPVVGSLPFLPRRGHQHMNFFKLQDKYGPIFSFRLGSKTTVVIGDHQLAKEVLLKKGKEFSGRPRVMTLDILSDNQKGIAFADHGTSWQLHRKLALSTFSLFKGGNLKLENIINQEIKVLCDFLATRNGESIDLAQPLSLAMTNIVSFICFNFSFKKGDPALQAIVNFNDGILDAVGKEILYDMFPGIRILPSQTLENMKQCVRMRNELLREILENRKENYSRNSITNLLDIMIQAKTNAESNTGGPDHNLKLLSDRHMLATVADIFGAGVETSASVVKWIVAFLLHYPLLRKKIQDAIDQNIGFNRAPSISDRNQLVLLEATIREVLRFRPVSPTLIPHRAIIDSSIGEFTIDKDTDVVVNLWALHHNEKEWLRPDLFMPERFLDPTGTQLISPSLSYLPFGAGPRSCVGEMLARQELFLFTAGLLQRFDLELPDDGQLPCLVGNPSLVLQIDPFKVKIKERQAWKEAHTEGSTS

Row | Substance | Overall conversion (ratio of activity with b5/activity without b5), pregnenolone metabolism in transfected HEK-293 cells
1 | porcine cytochrome b5 type A mutant CYB5A-R52M (from UniProt P00172 2-134) | 0.765
2 | porcine cytochrome b5 type A double mutant CYB5A-N21K+L28V (from UniProt P00172 2-134) | 1.05
3 | porcine cytochrome b5 type A mutant CYB5A-N62S (from UniProt P00172 2-134) | 2.16
4 | porcine cytochrome b5 type A mutant CYB5A-G57R (from UniProt P00172 2-134) | 0.865
5 | porcine cytochrome b5 type A mutant CYB5A-T70S (from UniProt P00172 2-134) | 1.09
6 | porcine cytochrome b5 type A mutant CYB5A-L28V (from UniProt P00172 2-134) | 1.2
7 | porcine cytochrome b5 type A mutant CYB5A-QM R52M/G57R/N62S/T70S (from UniProt P00172 2-134) | 1.4
8 | porcine cytochrome b5 type A mutant CYB5A-N21K (from UniProt P00172 2-134) | 1.36
9 | porcine cytochrome b5 type A double mutant CYB5A-R52M+N62S (from UniProt P00172 2-134) | 0.957
